# Laboratory results reported in patent US12275778 (dated 2025).
# Residue numbers refer to the chain shown, from its start.
# B1: Fab combination 21 (antibody, V domains shown)
# VH: EVQLQQSGPELVKPGASVKMSCKASGYTFTDYYMKWVKQSHGKSLEWIGDINPNNGETWYNQKFKDKATLTVDKSSSTAYMQLNSLTSEDSAVYYCATRYFDYWGQGTTLTVSS
# VL: DIVLTQSPASLAVSLGQRATISCKASQSVDYDGTSYMNWFQQKAGQPPKRLIYAASNLESGIPARFSGRGSGTDFALNIHPVEEEDAATYYCQQSNEDPYTFGGGTKLEIKR
# B2: Fab combination 20 (antibody, V domains shown)
# VH: B1 VH with W59F, Y103F
# VL: B1 VL
# B3: Fab combination 8 (antibody, V domains shown)
# VH: B1 VH with Y33F, W59F, Y103F
# VL: B1 VL
# B4: Fab combination 16 (antibody, V domains shown)
# VH: B1 VH with Y33I, W59F, Y103F
# VL: B1 VL
# B5: Fab combination 7 (antibody, V domains shown)
# VH: B1 VH with Y33F, W59F, Y100V, Y103F
# VL: B1 VL
# B6: Fab combination 2 (antibody, V domains shown)
# VH: B1 VH with Y33F, Y100V
# VL: B1 VL
# B7: Fab combination 5 (antibody, V domains shown)
# VH: B1 VH with Y33F, Y103F
# VL: B1 VL
# B8: Fab combination 23 (antibody, V domains shown)
# VH: B1 VH with Y103F
# VL: B1 VL
# B9: Fab combination 18 (antibody, V domains shown)
# VH: B1 VH with W59F
# VL: B1 VL
# B10: Fab combination 12 (antibody, V domains shown)
# VH: B1 VH with Y33I, Y100V, Y103F
# VL: B1 VL
# B11: Fab combination 15 (antibody, V domains shown)
# VH: B1 VH with Y33I, W59F, Y100V, Y103F
# VL: B1 VL
# B12: parental Fab (TnT M-7) (antibody, V domains shown)
# VH: B1 VH with W59F, Y100V
# VL: B1 VL
# B13: Fab combination 22 (antibody, V domains shown)
# VH: B1 VH with Y100V, Y103F
# VL: B1 VL
# B14: Fab combination 19 (antibody, V domains shown)
# VH: B1 VH with W59F, Y100V, Y103F
# VL: B1 VL
# B15: Fab combination 11 (antibody, V domains shown)
# VH: B1 VH with Y33I
# VL: B1 VL
# B16: Fab combination 1 (antibody, V domains shown)
# VH: B1 VH with Y33F, W59F, Y100V
# VL: B1 VL
# B17: Fab combination 17 (antibody, V domains shown)
# VH: B1 VH with Y100V
# VL: B1 VL
# B18: Fab combination 9 (antibody, V domains shown)
# VH: B1 VH with Y33I, W59F, Y100V
# VL: B1 VL
# B19: Fab combination 3 (antibody, V domains shown)
# VH: B1 VH with Y33F
# VL: B1 VL
# B20: Fab combination 4 (antibody, V domains shown)
# VH: B1 VH with Y33F, Y100V, Y103F
# VL: B1 VL
# B21: Fab combination 13 (antibody, V domains shown)
# VH: B1 VH with Y33I, Y103F
# VL: B1 VL
# Molecular target: cardiac troponin T (recombinant human) (human)
# Assay: SPR, 37C
row,Kd [pM],Binder
1,1600,B1
2,1100,B2
3,200,B3
4,3400,B4
5,450,B5
6,460,B6
7,230,B7
8,1200,B8
9,1600,B9
10,320,B10
11,1100,B11
12,580,B12
13,0.0038,B13
14,460,B14
15,1000,B15
16,620,B16
17,540,B17
18,1200,B18
19,370,B19
20,2.7,B20
21,620,B21
